{"source": "patent US20230270815A1", "about": "(RAJIV GANDHI CENTRE FOR BIOTECHNOLOGY, published 2023)", "binders": {"B1": {"name": "SSTP1 (Temporin1Dau1) (peptide)", "peptide": "FLPLLISALTSLFPKLGK", "modifications": "not fully specified", "notes": "Chemically synthesized mature peptide of 18 residues from frog skin secretion; No C-terminal amide is printed for SSTP1; also called SSTP1-biotin; SSTP1-Alexa Fluor-488"}}, "key": {"[1]": {"target": "T1, IL6Rα (Interleukin 6 Receptor α) (UniProt P08887 20-468, limits assumed)", "T1 sequence (looked up)": "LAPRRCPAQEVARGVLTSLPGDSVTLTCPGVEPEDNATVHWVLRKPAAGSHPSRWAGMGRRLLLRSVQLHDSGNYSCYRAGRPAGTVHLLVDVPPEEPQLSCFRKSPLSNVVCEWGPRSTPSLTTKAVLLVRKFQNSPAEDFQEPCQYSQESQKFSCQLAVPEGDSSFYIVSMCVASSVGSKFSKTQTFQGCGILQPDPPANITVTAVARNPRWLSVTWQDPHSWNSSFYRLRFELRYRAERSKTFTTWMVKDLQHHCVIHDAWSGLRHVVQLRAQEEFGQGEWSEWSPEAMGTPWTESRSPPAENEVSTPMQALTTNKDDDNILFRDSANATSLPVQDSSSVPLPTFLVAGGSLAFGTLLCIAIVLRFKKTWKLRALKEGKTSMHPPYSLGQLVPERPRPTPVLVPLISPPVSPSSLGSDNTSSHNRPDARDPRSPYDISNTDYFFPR", "assay": "cell-based or functional assay"}, "[2]": {"target": "T2, DSG3 (UniProt P32926 50-999, limits assumed)", "T2 construct": "whole, on cells", "T2 sequence (looked up)": "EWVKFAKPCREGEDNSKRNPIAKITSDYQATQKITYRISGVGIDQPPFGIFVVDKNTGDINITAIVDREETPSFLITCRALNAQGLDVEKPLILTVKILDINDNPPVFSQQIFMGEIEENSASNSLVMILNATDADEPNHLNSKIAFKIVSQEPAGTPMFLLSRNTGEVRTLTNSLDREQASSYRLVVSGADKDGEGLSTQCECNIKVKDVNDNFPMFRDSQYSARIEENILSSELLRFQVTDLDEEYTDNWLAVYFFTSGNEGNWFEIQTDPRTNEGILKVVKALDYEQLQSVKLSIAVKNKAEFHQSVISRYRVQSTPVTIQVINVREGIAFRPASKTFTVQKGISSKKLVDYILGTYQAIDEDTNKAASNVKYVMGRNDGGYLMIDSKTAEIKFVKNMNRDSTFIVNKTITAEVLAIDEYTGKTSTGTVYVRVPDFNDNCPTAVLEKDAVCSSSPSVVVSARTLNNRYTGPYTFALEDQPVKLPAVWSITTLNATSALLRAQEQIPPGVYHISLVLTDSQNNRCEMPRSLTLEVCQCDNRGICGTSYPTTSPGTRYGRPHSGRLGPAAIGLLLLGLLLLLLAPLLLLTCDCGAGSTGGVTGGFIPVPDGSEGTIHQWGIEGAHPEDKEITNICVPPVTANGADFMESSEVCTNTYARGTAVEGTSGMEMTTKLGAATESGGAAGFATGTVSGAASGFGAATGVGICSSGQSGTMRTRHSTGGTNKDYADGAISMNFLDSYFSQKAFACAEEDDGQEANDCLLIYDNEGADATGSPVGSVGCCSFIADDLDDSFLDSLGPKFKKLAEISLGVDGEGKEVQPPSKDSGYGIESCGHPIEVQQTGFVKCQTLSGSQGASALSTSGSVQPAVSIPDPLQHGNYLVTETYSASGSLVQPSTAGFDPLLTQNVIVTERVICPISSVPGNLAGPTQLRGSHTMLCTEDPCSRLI", "assay": "co-immunofluorescence on HSC-4 cells"}, "[3]": {"target": "T3, DLL1 (UniProt O00548 18-723, limits assumed)", "T3 construct": "whole, on cells", "T3 sequence (looked up)": "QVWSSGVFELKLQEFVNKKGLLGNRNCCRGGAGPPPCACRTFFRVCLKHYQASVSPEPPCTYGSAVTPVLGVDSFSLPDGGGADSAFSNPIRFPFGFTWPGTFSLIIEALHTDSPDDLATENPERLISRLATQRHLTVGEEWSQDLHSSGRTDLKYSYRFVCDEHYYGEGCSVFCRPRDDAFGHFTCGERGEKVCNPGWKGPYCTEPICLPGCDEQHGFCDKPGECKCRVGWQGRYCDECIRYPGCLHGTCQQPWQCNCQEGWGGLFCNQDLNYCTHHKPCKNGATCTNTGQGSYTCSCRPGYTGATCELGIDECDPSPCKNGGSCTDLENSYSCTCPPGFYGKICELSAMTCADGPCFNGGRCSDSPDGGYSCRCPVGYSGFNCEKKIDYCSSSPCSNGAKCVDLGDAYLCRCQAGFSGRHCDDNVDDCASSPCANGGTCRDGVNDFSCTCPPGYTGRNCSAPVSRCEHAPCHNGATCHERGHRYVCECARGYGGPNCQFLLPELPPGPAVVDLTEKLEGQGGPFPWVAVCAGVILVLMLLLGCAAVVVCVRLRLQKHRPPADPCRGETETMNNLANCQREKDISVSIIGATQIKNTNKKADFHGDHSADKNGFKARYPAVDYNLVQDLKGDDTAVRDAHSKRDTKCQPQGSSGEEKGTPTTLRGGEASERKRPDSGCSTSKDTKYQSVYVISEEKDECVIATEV", "assay": "co-immunofluorescence on HSC-4 cells"}, "[4]": {"target": "T4, GRPR (UniProt P30550 1-384, limits assumed)", "T4 construct": "whole, on cells", "T4 sequence (P30550 whole entry)": "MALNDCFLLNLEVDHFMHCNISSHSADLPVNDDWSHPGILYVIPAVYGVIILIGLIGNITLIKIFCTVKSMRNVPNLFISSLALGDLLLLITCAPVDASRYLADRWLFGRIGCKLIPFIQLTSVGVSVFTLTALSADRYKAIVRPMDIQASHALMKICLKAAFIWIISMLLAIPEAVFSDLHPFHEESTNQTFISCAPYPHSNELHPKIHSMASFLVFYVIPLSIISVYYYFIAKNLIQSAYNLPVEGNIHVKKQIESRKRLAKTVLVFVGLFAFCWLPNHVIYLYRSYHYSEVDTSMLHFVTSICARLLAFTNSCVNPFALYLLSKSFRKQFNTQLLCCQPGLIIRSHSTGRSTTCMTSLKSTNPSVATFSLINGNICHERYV", "assay": "co-immunofluorescence on HSC-4 cells"}}, "note": "No end group written: not given here."}
{"binder": "B1", "values": [{"measurement": "growth inhibition of HSC-4 cells, MTT assay, IC50", "setting": "[1]", "value": 10.2, "unit": "µM"}, {"measurement": "growth inhibition of MDA-MB-231 cells, MTT assay, IC50", "setting": "[1]", "value": 4.5, "unit": "µM"}, {"measurement": "binding result", "setting": "[2]", "value": "no binding"}, {"measurement": "binding result", "setting": "[3]", "value": "no binding"}, {"measurement": "binding result", "setting": "[4]", "value": "no binding"}]}
